# Experimental data as given in PMC3189932, “Viral Double-Strand RNA-Binding Proteins Can Enhance Innate Immune Signaling by Toll-Like Receptor 3”.
# T1: B-cp (Brome mosaic virus, UniProt P03602 1-189)
# T1 sequence: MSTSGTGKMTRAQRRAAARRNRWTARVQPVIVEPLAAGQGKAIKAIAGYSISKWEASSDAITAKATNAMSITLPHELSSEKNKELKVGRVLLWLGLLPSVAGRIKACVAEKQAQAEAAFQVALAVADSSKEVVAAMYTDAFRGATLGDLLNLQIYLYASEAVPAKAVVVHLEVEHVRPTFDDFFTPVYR
# Legend:
# H-cp183 = H-cp183 (Hepatitis B virus, UniProt P03147 1-183); assay: UV crosslinking; 4 mM Mg2+; 50 mM Tris-HCl pH 7.5, 4 mM MgCl2, 50 mM NaCl, 1 mM DTT; 400 ng protein, 1 pmol RNA; UV 1200 mJ 3 min then SDS-PAGE (crosslinking); nondenaturing stacked 5/20%; details: protein: recombinant; chain copies: 2; label: Cy5; hairpin, 11-bp stem, GNRA tetraloop
# Chain of H-cp183 (P03147 whole entry): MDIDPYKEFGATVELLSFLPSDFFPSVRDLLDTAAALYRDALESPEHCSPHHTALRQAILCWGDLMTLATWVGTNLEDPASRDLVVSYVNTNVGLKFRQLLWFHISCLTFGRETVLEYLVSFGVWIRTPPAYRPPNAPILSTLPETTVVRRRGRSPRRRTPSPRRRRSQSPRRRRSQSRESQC
# B-cp = target: T1, B-cp; assay: as above; details: protein: native; label: Cy5; hairpin, 11-bp stem, GNRA tetraloop
# R-cp = R-cp (Ross River virus, UniProt P13890 1-270); assay: as above; details: protein: recombinant; label: Cy5; hairpin, 11-bp stem, GNRA tetraloop
# Chain of R-cp (P13890 1-270): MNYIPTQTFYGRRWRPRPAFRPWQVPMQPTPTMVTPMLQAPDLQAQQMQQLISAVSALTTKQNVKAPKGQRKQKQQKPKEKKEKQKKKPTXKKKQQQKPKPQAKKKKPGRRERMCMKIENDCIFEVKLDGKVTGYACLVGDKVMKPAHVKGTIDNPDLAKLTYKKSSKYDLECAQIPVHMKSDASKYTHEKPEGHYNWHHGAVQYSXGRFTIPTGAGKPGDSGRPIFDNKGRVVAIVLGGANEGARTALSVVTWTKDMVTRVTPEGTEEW
# H-cp149 = H-cp149 (Hepatitis B virus, UniProt P03147 1-149); assay: UV crosslinking; 4 mM Mg2+; no shift; 50 mM Tris-HCl pH 7.5, 4 mM MgCl2, 50 mM NaCl, 1 mM DTT; 400 ng protein, 1 pmol RNA; UV 1200 mJ 3 min then SDS-PAGE (crosslinking); nondenaturing stacked 5/20%; details: protein: recombinant; chain copies: 2; label: Cy5; hairpin, 11-bp stem, GNRA tetraloop
# Chain of H-cp149 (P03147 1-149): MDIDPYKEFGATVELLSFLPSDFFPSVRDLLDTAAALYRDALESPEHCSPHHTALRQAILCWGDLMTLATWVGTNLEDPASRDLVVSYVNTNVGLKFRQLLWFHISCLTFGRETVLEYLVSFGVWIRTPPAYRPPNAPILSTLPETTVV
binder,measurement,setting,value
CCAAGUCAUUCGCAAGAGUGGCUUGG (structured_RNA) [SL26],binding result,H-cp183,binds
same,binding result,B-cp,binds
same,binding result,R-cp,binds
same,binding result,H-cp149,no binding
